Test results: patent publication US20260209350A1 (Alector, published 2026)
Substitutions are numbered along the chain they refer to.

B1: Ab1 (antibody, human IgG1, V domains shown)
VH: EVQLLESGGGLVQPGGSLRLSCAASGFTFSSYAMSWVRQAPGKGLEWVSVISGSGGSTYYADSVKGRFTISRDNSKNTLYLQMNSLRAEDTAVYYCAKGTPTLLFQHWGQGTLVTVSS
VL: EIVMTQSPATLSVSPGERATLSCRASQSVSSNLAWYQQKPGQAPRLLIYGASTRATGIPARFSGSGSGTEFTLTISSLQSEDFAVYYCQQLPYWPPTFGGGTKVEIK
notes: human IgG1
B2: Ab9 (antibody, human IgG1, V domains shown)
VH: EVQLVQSGAEVKKPGESLKISCKGSGYSFTSYWIGWVRQMPGKGLEWMGIIYPGDSDTTYSPSFQGQVTISADKSISTAYLQWSSLKASDTAMYYCARLHISGEVNWFDPWGQGTLVTVSS
VL: EIVLTQSPATLSLSPGERATLSCRASQSVSSYLAWYQQKPGQAPRLLIYDASNRATGIPARFSGSGSGTDFTLTISSLEPEDFAVYYCQQFSYWPWTFGGGTKVEIK
notes: human IgG1
B3: Ab14 (antibody, human IgG1, V domains shown)
VH: QVQLQESGPGLVKPSQTLSLTCTVSGGSISSGGYYWSWIRQHPGKGLEWIGNIYYSGSTVYNPSLKSRVTISVDTSKNQFSLKLSSVTAADTAVYYCARGLYGYGVLDVWGQGTMVTVSS
VL: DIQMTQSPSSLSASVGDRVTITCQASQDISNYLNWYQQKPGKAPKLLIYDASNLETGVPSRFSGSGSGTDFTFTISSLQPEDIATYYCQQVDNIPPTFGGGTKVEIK
notes: human IgG1
B4: Ab22 (antibody, human IgG1, V domains shown)
VH: EVQLVQSGAEVKKPGESLKISCKGSGYSFTTYWIGWVRQMPGKGLEWMGIIYPGDSDTRYSPSFQGQVTISADKSISTAYLQWSSLKASDTAMYYCARAGHYDGGHLGMDVWGQGTTVTVSS
VL: EIVMTQSPGTLSLSPGERATLSCRASQSVSSSYLAWYQQKPGQAPRLLIYGASSRATGIPDRFSGSGSGTDFTLTISRLEPEDFAVYYCQQDDRSPYTFGGGTKVEIK
notes: human IgG1
B5: Ab45 (antibody, human IgG1, V domains shown)
VH: QVQLVQSGAEVKKPGASVKVSCKASGYTFTSYYMHWVRQAPGQGLEWMGIINPSGGSTSYAQKFQGRVTMTRDTSTSTVYMELSSLRSEDTAVYYCARGPGYTTALDYYYMDVWGKGTTVTVSS
VL: EIVMTQSPATLSVSPGERATLSCRASQSVSSNLAWYQQKPGQAPRLLIYGASTRATGIPARFSGSGSGTEFTLTISSLQSEDFAVYYCQQLDDWFTFGGGTKVEIK
notes: human IgG1
B6: Ab65 (antibody, human IgG1, V domains shown)
VH: EVQLVQSGAEVKKPGESLKISCKGSGYSFTSYWIGWVRQMPGKGLEWMGIIYPGDSDTRYSPSFQGQVTISADKSISTAYLQWSSLKASDTAMYYCARLGRKPSGSVAFDIWGQGTMVTVSS
VL: B2 VL with F91D, S92Y, Y93S, W96Y
notes: human IgG1
B7: Ab52 (antibody, human IgG1, V domains shown)
VH: QVQLVQSGAEVKKPGASVKVSCKASGYTFTSYYIHWVRQAPGQGLEWMGIINPSGGSTSYAQKFQGRVTMTRDTSTSTVYMELSSLRSEDTAVYYCAREADDSSGYPLGLDVWGQGTMVTVSS
VL: B1 VL with L91V, P92N, Y93S, W94L
notes: human IgG1; also called antibody 52
B8: Ab21 (antibody, human IgG1, V domains shown)
VH: B4 VH
VL: B4 VL with S54N, R94S, S95A
notes: human IgG1; also called antibody 21

Each binder was assayed against T1, mouse TREM2 on cells (mouse, UniProt Q99NH8 19-227) (assay: FACS, BWZ T2 cells).
T1 construct: whole, on cells; Used for the recombinant protein on BWZ/BW cells (with mouse DAP12) and for the native protein on mouse macrophages and dendritic cells; the cell type stands under assay; also called mTREM2; mTrem2
T1 sequence (looked up): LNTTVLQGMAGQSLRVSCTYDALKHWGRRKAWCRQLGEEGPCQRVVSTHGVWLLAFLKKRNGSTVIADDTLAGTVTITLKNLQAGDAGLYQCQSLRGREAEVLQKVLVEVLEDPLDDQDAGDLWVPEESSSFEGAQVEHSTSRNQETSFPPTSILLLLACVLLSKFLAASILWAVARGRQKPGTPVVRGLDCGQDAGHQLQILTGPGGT

Binder | MFI [MFI]
B1 | 12600
B2 | 15700
B3 | 11600
B4 | 12500
B5 | 16300
B6 | 16100

The binders below were run against T1, mouse TREM2 on cells (assay: FACS, mTrem2 cells).

Binder | MFI [MFI]
B7 | 15600

The binders below were run against T2, human TREM2 on primary human cells (human, UniProt Q9NZC2 19-230) (assay: cell-based or functional assay).
T2 sequence: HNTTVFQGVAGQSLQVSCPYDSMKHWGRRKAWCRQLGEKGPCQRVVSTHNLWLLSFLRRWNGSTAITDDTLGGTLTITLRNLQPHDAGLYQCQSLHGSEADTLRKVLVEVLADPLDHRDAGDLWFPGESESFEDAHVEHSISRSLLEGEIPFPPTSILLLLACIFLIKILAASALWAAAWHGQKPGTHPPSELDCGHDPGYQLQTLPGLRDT

Binder | Induction of CD86 & CD83 Human hDC plate (% CD83+CD86+ cells) [%] | Induction of CD86 & CD83 hDC solution (% CD83+CD86+ cells) [%]
B1 | 87.2 | 3
B2 | 79.3 | 5.6
B3 | 78.7 | 1.9
B4 | 74.5 | 1.2
B5 | 65.5 | 4.3
B6 | 74 | 1.7

The binders below were run against T3, human TREM2 Fc fusion protein (human, UniProt Q9NZC2 19-174) (assay: ForteBio or MSD-SET, avid).
T3 construct: also called hTREM2-Fc; not shown: Fc part not specified
T3 sequence: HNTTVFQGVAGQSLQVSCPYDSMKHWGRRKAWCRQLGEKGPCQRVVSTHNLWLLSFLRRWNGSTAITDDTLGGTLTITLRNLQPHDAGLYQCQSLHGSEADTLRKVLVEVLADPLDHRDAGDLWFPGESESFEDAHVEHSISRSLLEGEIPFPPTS

Binder | Kd [nM]
B8 | 0.344
B7 | 1.51

Each binder was assayed against T4, mouse TREM2 Fc fusion protein (mouse, UniProt Q99NH8 19-171) (assay: ForteBio or MSD-SET, avid).
T4 construct: also called mTREM2-Fc; not shown: Fc part not specified
T4 sequence (looked up): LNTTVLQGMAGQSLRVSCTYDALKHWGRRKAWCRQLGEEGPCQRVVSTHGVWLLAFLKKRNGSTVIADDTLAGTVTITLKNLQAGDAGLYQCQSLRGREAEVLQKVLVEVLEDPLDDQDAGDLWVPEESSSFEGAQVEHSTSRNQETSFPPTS

Binder | Kd [nM]
B8 | 0.227
B7 | 0.0896

Target: T3, human TREM2 Fc fusion protein
Assay: ForteBio or MSD-SET, avid
Remark: another data set of the same source
Procedure: (§1) The binding affinity of each anti-TREM2 antibody was determined by measuring their KD by ForteBio or MSD-SET. […] Briefly, ForteBio affinity measurements were performed by loading IgGs on-line onto AHQ sensors. Sensors were equilibrated off-line in assay buffer for 30 min and then monitored on-line for 60 seconds for baseline establishment. Sensors with loaded IgGs were exposed to 100 nM antigen for 5 minutes, then transferred to assay buffer for 5 min for off-rate measurement. Kinetics were analyzed using the 1:1 binding model.
(§2) Solution equilibrium titrations (SET) were performed in PBS+0.1% IgG-Free BSA (PBSF) with antigen held constant at 50 pM and incubated with 3- to 5-fold serial dilutions of antibody starting at 10 nM. Antibodies (20 nM in PBS) were coated onto standard bind MSD-ECL plates overnight at 4° C. or at room temperature for 30 min. Plates were then blocked for 30 min with shaking at 700 rpm, followed by three washes with wash buffer (PBSF+0.05% Tween 20). SET samples were applied and incubated on the plates for 150s with shaking at 700 rpm followed by one wash. Antigen captured on a plate was detected with 250 ng/mL sulfotag-labeled streptavidin in PBSF by incubation on the plate for 3 min. The plates were washed three times with wash buffer and then read on the MSD Sector Imager 2400 instrument using 1×Read Buffer T with surfactant. The percent free antigen was plotted as a function of titrated antibody in Prism and fit to a quadratic equation to extract the KD. To improve throughput, liquid handling robots were used throughout MSD-SET experiments, including SET sample preparation.

Binder | Kd [nM]
B1 | 0.705
B2 | 0.348
B3 | 0.551
B4 | 0.306
B5 | 0.229
B6 | 0.546

Target: T4, mouse TREM2 Fc fusion protein
Assay: ForteBio or MSD-SET, avid
Remark: another data set of the same source
Procedure: as §1, §2

Binder | Kd [nM]
B1 | 4.86
B3 | 0.62
B4 | 0.34
B6 | 1.56

Target: T3, human TREM2 Fc fusion protein
Assay: ForteBio or MSD-SET, avid
Remark: another data set of the same source

Binder | Kd [nM]
B7 | 1.51

Target: T4, mouse TREM2 Fc fusion protein
Assay: ForteBio or MSD-SET, avid
Remark: another data set of the same source

Binder | Kd [nM]
B7 | 0.0896

These binders were tested against T1, mouse TREM2 on cells (assay: FACS, WT mouse macrophages).
Procedure: (§3) Cells were harvested, plated at 10⁵/ml in a 96 well plate, washed, and incubated in 100 ul PBS containing 10-50 ug/ml Mab and Fc blocking reagent for 1 hour in ice. Cells were then washed twice and incubated in 100 ul PBS containing 5 ug/ml PE-conjugated secondary antibody for 30 minutes in ice. Cells were washed twice in cold PBS and acquired on a BD FACS Canto. Data analysis and calculation of MFI values was performed with FlowJo (TreeStar) software version 10.0.7.

Binder | MFI [MFI]
B1 | 82.3
B2 | 171
B3 | 145
B4 | 110
B5 | 141
B6 | 165

These binders were tested against T1, mouse TREM2 on cells (assay: FACS, WT mouse dendritic cells).
Procedure: as §3

Binder | MFI [MFI]
B1 | 393
B2 | 538
B3 | 529
B4 | 451
B5 | 652
B6 | 642

Each binder was assayed against T5, human monomeric His tagged TREM2 protein (human, UniProt Q9NZC2 19-174) (assay: ForteBio or MSD-SET, monovalent).
T5 construct: also called hTREM2-HIS
T5 sequence: T3 sequence
Procedure: as §1
Solution equilibrium titrations (SET) were performed in PBS+0.1% IgG-Free BSA (PBSF) with antigen held constant at 50 pM and incubated with 3- to 5-fold serial dilutions of antibody starting at 10 nM. Antibodies (20 nM in PBS) were coated onto standard bind MSD-ECL plates overnight at 4° C. or at room temperature for 30 min. Plates were then blocked for 30 min with shaking at 700 rpm, followed by three washes with wash buffer (PBSF+0.05% Tween 20). SET samples were applied and incubated on the plates for 150s with shaking at 700 rpm followed by one wash. Antigen captured on a plate was detected with 250 ng/mL sulfotag-labeled streptavidin in PBSF by incubation on the plate for 3 min. The plates were washed three times with wash buffer and then read on the MSD Sector Imager 2400 instrument using 1× Read Buffer T with surfactant. […]

Binder | Kd [nM]
B8 | 1.14
B7 | 5.75

Target: T5, human monomeric His tagged TREM2 protein
Assay: ForteBio or MSD-SET, monovalent
Remark: another data set of the same source
Procedure: as §1, §2

Binder | Kd [nM]
B1 | 6.67
B2 | 6.32
B3 | 3.19
B4 | 1.01
B5 | 0.654
B6 | 5.01

Target: T5, human monomeric His tagged TREM2 protein
Assay: ForteBio or MSD-SET, monovalent
Remark: another data set of the same source

Binder | Kd [nM]
B7 | 5.75

The binders below were run against T2, human TREM2 on primary human cells (assay: FACS, primary human dendritic cells).

Binder | hDC % positive [%]
B1 | 64.9
B2 | 65.8
B3 | 75.8
B4 | 76.9
B5 | 78.8
B6 | 76.9
